Each block holds one binder with its values, some of them ahead of it.
B1: Regulator of ribonuclease activity A (RraA) (natural protein, Escherichia coli)
chain: MKYDTSELCDIYQEDVNVVEPLFSNFGGRASFGGQIITVKCFEDNGLLYDLLEQNGRGRVLVVDGGGSVRRALVDAELARLAVQNEWEGLVIYGAVRQVDDLEELDIGIQAMAAIPVGAAGEGIGESDVRVNFGGVTFFSGDHLYADNTGIILSEDPLDIE
notes: RraA, regulator of ribonuclease activity A, Escherichia coli; ring-shaped homotrimer (52 kDa); residues 2-159 modelled in the crystal; Trimer at 150 mM NaCl; about 100 kDa (hexamer) at 300 mM NaCl
B2: CsdAΔ (truncated CsdA, residues 1 to 443) (domain or fragment, Escherichia coli, UniProt P0A9P6 1-443, looked up)
chain: MAEFETTFADLGLKAPILEALNDLGYEKPSPIQAECIPHLLNGRDVLGMAQTGSGKTAAFSLPLLQNLDPELKAPQILVLAPTRELAVQVAEAMTDFSKHMRGVNVVALYGGQRYDVQLRALRQGPQIVVGTPGRLLDHLKRGTLDLSKLSGLVLDEADEMLRMGFIEDVETIMAQIPEGHQTALFSATMPEAIRRITRRFMKEPQEVRIQSSVTTRPDISQSYWTVWGMRKNEALVRFLEAEDFDAAIIFVRTKNATLEVAEALERNGYNSAALNGDMNQALREQTLERLKDGRLDILIATDVAARGLDVERISLVVNYDIPMDSESYVHRIGRTGRAGRAGRALLFVENRERRLLRNIERTMKLTIPEVELPNAELLGKRRLEKFAAKVQQQLESSDLDQYRALLSKIQPTAEGEELDLETLAAALLKMAQGERTLIVPPD
notes: CsdA (DeaD), DEAD-box RNA helicase, Escherichia coli, residues 1 to 443, without the C-terminal extension; Vector pROEX-HT, gift of M. Dreyfus and T. Bizebard; also called CsdA (DeaD); source: E. coli BL21(DE3), purified (HisTrap FF)
B4: DEAD-box helicase SrmB (enzyme, Escherichia coli, UniProt P21507 1-444, looked up)
chain: MTVTTFSELELDESLLEALQDKGFTRPTAIQAAAIPPALDGRDVLGSAPTGTGKTAAYLLPALQHLLDFPRKKSGPPRILILTPTRELAMQVSDHARELAKHTHLDIATITGGVAYMNHAEVFSENQDIVVATTGRLLQYIKEENFDCRAVETLILDEADRMLDMGFAQDIEHIAGETRWRKQTLLFSATLEGDAIQDFAERLLEDPVEVSANPSTRERKKIHQWYYRADDLEHKTALLVHLLKQPEATRSIVFVRKRERVHELANWLREAGINNCYLEGEMVQGKRNEAIKRLTEGRVNVLVATDVAARGIDIPDVSHVFNFDMPRSGDTYLHRIGRTARAGRKGTAISLVEAHDHLLLGKVGRYIEEPIKARVIDELRPKTRAPSEKQTGKPSKKVLAKRAEKKKAKEKEKPRVKKRHRDTKNIGKRRKPSGTGVPPQTTEE
notes: SrmB, DEAD-box RNA helicase, Escherichia coli; monomer of 50 kDa as printed; only residues 219-388 (C-terminal RecA-like domain) are resolved in the crystal; source: E. coli BL21(DE3), purified (ammonium sulfate precipitation, heparin column)

Legend:
[1] = molecular target: B2; assay: native gel or EMSA; 5% native polyacrylamide gel, Tris glycine running buffer with 1 mM DTT, 4 °C; helicase 10 μM and RraA 30 μM (2.5 and 7.5 μM for the mutants of Figure 3); bands of the complex cut out and analysed by SDS-PAGE; conditions: both partners purified
DEAD-box helicase RhlE = molecular target: T1, DEAD-box helicase RhlE (Escherichia coli, UniProt P25888 1-454); assay: as above; conditions: both partners purified
T1 construct: RhlE, DEAD-box RNA helicase, Escherichia coli; source: E. coli BL21(DE3), purified (ammonium sulfate precipitation, heparin column)
T1 sequence (looked up): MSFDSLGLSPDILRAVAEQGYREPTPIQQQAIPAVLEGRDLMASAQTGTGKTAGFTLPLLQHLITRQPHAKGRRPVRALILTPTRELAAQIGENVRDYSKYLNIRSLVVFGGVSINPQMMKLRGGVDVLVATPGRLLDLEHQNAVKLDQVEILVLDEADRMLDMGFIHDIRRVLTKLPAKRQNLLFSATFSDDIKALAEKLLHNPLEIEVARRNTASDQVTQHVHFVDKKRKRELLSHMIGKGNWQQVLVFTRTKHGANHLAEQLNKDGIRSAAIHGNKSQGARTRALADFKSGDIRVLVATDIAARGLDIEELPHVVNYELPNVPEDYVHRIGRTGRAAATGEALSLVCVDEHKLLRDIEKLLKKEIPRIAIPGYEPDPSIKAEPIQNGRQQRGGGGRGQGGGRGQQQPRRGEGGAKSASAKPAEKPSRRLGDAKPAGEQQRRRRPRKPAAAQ

DEAD-box helicase DbpA = molecular target: T2, DEAD-box helicase DbpA (Escherichia coli, UniProt P21693 1-457); assay: AUC; sedimentation velocity, absorbance at 280 nm, 20 °C; 150 mM NaCl, 50 mM HEPES pH 7.5, 10% glycerol; mixtures at 1:1 helicase:RraA trimer, about 10 μM; conditions: both partners purified
T2 construct: DbpA, DEAD-box RNA helicase, Escherichia coli; monomer of 49 kDa as printed; source: E. coli BL21(DE3), purified (ammonium sulfate precipitation, heparin column)
T2 sequence (looked up): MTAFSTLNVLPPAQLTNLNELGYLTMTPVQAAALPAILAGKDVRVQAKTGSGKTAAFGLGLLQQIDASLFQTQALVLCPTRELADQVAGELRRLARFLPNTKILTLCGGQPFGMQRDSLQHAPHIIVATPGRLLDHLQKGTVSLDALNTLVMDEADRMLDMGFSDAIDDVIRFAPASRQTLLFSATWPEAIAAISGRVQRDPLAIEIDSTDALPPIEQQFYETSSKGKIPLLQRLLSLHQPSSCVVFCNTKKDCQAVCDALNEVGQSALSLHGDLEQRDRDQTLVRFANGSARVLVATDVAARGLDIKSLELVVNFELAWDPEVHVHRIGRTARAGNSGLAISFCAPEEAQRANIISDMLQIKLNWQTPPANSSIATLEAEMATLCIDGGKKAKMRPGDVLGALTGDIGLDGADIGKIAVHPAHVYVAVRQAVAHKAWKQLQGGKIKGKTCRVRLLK

[2] = molecular target: the molecule itself; assay: as above
DEAD-box helicase SrmB = molecular target: B4; assay: as above; conditions: both partners purified
[3] = molecular target: the molecule itself; assay: crystal structure; RraA and RhlB(398-421) mixed at 1:20; 74.8 μM RraA, 1.48 mM peptide, 423 mM NaCl, 99 mM (NH4)2SO4; hanging drop, 16 °C; 100 mM sodium citrate pH 5.4, 32% methylpentanediol, 200 mM ammonium acetate; 2.8 Å
[4] = molecular target: the molecule itself; assay: AUC; sedimentation velocity, 20 °C; 300 mM NaCl, 50 mM HEPES pH 7.5, 10% glycerol, 2 mM tris(2-carboxyethyl)phosphine; experiments with CsdAΔ; about 10 μM
[5] = molecular target: B1; assay: AUC; sedimentation velocity, absorbance at 280 nm, 20 °C; 150 mM NaCl, 50 mM HEPES pH 7.5, 10% glycerol; mixtures at 1:1 helicase:RraA trimer, about 10 μM; conditions: both partners purified
[6] = molecular target: B1; assay: SAXS; SrmB and RraA mixed at a 1:3 molar ratio; 150 mM NaCl, 20 mM HEPES pH 7.0, 5% glycerol, 2 mM DTT; 15 °C; 5 to 55 μM; ab initio envelope; conditions: both partners purified

Binder: B1
binding result [1]: binds | binding result (DEAD-box helicase RhlE): binds | binding result (DEAD-box helicase DbpA): binds | stoichiometry N [2]: 3 | Kd (DEAD-box helicase SrmB): < 10 µM | stoichiometry N [3]: 6

Binder: B2
stoichiometry N [4]: 2

stoichiometry N [5]: 1 helicase monomer per RraA trimer
B3: DEAD-box helicase RhlB (enzyme, Escherichia coli, UniProt P0A8J8 1-421, looked up)
chain: MSKTHLTEQKFSDFALHPKVVEALEKKGFHNCTPIQALALPLTLAGRDVAGQAQTGTGKTMAFLTSTFHYLLSHPAIADRKVNQPRALIMAPTRELAVQIHADAEPLAEATGLKLGLAYGGDGYDKQLKVLESGVDILIGTTGRLIDYAKQNHINLGAIQVVVLDEADRMYDLGFIKDIRWLFRRMPPANQRLNMLFSATLSYRVRELAFEQMNNAEYIEVEPEQKTGHRIKEELFYPSNEEKMRLLQTLIEEEWPDRAIIFANTKHRCEEIWGHLAADGHRVGLLTGDVAQKKRLRILDEFTRGDLDILVATDVAARGLHIPAVTHVFNYDLPDDCEDYVHRIGRTGRAGASGHSISLACEEYALNLPAIETYIGHSIPVSKYNPDALMTDLPKPLRLTRPRTGNGPRRTGAPRNRRRSG
notes: RhlB, DEAD-box RNA helicase, Escherichia coli; monomer of 47 kDa as printed; The printed mass of 47 kDa fits the whole protein; 'full-length RhlB' is said only of the crystallisation trials

Binder: B4
stoichiometry N [5]: 1 helicase monomer per RraA trimer | stoichiometry N [6]: 1 SrmB per RraA trimer
